# B1: TPR t1 (parent)
# chain: GACCAAUCUGCCCUCAGAGCUCGAGAACAUCUUCGGAUGCAGAGGAGGCAGGCUUCGGUGGCGCGAUAGCGCCAACGUCCUCAACCUCCAAUGCAUCCCACCACAUGAUGAUGCCUGAAGAGCCUUGGUUUUUUG
# Variants of: B1
# Experiment: polymerase ribozyme fitness, log enrichment relative to wild type (log ratio); higher = more active; in vitro selection for triplet polymerase activity
# How it was run: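 Both subunits of a heterodimeric triplet polymerase ribozyme were given their own mutant library, built by PCR and transcribed. Each library was annealed with a biotinylated primer, the partner subunit and triplets, incubated frozen at −7 °C, and its extended constructs gel-excised, captured on streptavidin beads and amplified by RT-PCR, all in one round done in triplicate. Fitness is the logarithm of genotype enrichment relative to wild-type enrichment, with replicates averaged by inverse-variance weighting. That logarithm is base 2, and Illumina-sequenced genotypes needed ≥10 input reads and ≥1 read per output.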
row,Variant,polymerase ribozyme fitness (log ratio)
1,GACCAAUCUGCCCUCAGAGCUCGAGAACAUCUUCGUAUGCAGAGGAGACAGGCUUCGGUGGCGCGAUAGUGCCAACGUCCUUAACCUCCAAUGCAUCCCACCACAUGAUGAUGCCUGAAGAGCCUUGGUUUUGUG,-1.79
2,GACCAAUCUGCCCUCAGAGCUCGAGAACAUCUUCGUAUGCAGAGGAGGCAGGCUCCGGUGGCGCGAUAGCGCCAACGUCCUCAACCUCCAAUACAUCCCACCACAUGAUGAUGCCUGAAGAGCCUUGGUUUUUUG,-2.49
3,GACCAAUCUGCCCUCAGAGCUCGAGAACAUCUUCGUAUGCAGACGAGGCAGGCUUCGGUGGCGCGAUAGUGCCAACGUCCUCAACCUCCAAUGCAUCCCACCACAUGAUGAUGCCUGAAGAGCCUUGGUUUUUUG,-2.13
4,GACCAAUCUGCCCUCAGAGCUCGAGAACAUCUUCGUAUGCAGAGGAGGCAGGCUUCGGUGGCGCGAUAGCGCCAACGUUCUCAACCUCCAAUGCAUCCCACCACAUGAUGAUGCCUGAAGAGCCUUGGUUUUUUG,-1.62
5,GACCAAUCUGCCCUCAGAGCUCGAGAACAUCUUCGUAUUCAGAGGAGGCAGGCUUCGGUGGCGCGAUAGUGCCAACGUCCUCAACCUCCAAUGCAUCCCACCACAUGAUGGUGCCUGAAGAGCCUUGGUUUUUUG,-4.55
6,GACCAAUCUGCCCUCAGAGCUCGAGAACAUCUUCGUAUGCAGAGGAGGCAGGCUUCGGUGGCGCGAUAGCGCCAACGUCCUCAACCUCCAAUGCAUCCCACCACAUGAUGAUGCCUGAAAAGCCUAGGUUUAUUG,-0.708
7,GACCAAUCUGCCCUCAGAGCUCGAGAACAUCUUCGUAUGCAGAGGAGGCAGGCUUCGGUGGCGCGAUAGCGCCAACGUCCUCAACCUCCAAUGCAUCCCACCACAAGAUGAUGCCUGAAGAGCCUUGGUUUUUUG,-1.6
8,GACCAAUCUGCCCUCAGAGCUCGAGAACAUCUUCGUAUGCAGAGGAGGCAGGCUGCGGUGGCGCGAUAGCGCCAACGUCCUCUACCUCCAAUGCAUCCCACCACAUGAUAAUGCCUGAAGAGCCUUGGUGUUUUG,-5.37
9,GACCAAUCUGCCCUCAGAGCUCGAGAACAUCUUCGUAUGCAGAGGAGGCAGGCUUCGGUGGCGCGAUAGCGCCAACGUCAACAACCUCCAAUGCAUCCCACCACAUGAUGAUGCCUGAAGUGCCUUGGUCUUUUG,-0.239
10,GACCAAUCUGCCCUCAGAGCUCGAGAACAUCUUCGUAUGCAGAGGAGGCAGGCUUCGGCGGCGCGAUAGCGCCAACGUCCUCAACUUCCAAUGCAUCCCACCACAUGAUGAUGCCUGAAGAGCCUUGGUUUUUUG,-1.77
11,GACCAAUCUGCCCUCAGAGCUCGAGAACAUCUUCGGCUGCAGAGGAGGCAGGCUUCGGUGGCGCGAUAGAGCCAACGUCCUCAACCUCCAAUGCAUCCCACCACAUGAUGAUGCCUGAAGAGCCUUGGUUUUUUG,-1.82
12,GACCAAUCUGCCCUCAGAGCUCGAGAACAUCUUCGGCUGCAGAGGAGGCAGGCUUGGAUGGCCCGAUAGCGCCAACCUCCUCAACCUCCAAUGCAUCCCACCACAUGAUGAUGCCUGAAGAGCCUUGGUUUUUUG,-3.59
13,GACCAAUCUGCCCUCAGAGCUCGAGAACAUCUUCGUAUGCAGAGGAGGCAGGCUUCGGUGGCGCGAUAUCGCCAUCGUCCUCAACCUCCAAUGCAUCCCACCACAUGAUGAUGCCUGAAGAGCCUUGGUUUUUUG,-0.726
14,GACCAAUCUGCCCUCAGAGCUCGAGAACAUCUUCGUAUGCAGAGGAGGCAGGCUUCGGUGGCGCGAUAGCGCCAACGUCCUCAACCUCCAAUGCAUCCCACCACAGGAUGAUGCCUGAAAAGCCUUGGUUUUUUG,-1.89
15,GACCAAUCUGCCCUCAGAGCUCGAGAACAUCUUCGGCUGCAGAGGAGGCAGGCUUCGGUGGCGCGAUAGCGCCAACGUCCUCAACCUCCAAUGCUUCCCACCACAUGAUGAUGCCUGAAGAGCCUUGGUUUUUUG,-0.484
16,GACCAAUCUGCCCUCAGAGCUCGAGAACAUCUUCGUAUGCAGAAGAGGCAGGCUUCGGUGGCGCGAUAGCGCCAACGUCCUCAACCUCCAAUGCAUCCCACCACAUGAUGAAGCCUGAAGAGCCUUGGUUUUUUG,-0.0288
17,GACCAAUCUGCCCUCAGAGCUCGAGAACAUCUUCGUAUGCAGAGAAGGCAGGCUUCGGUGGCGCGAUAGCGCCAACGUCCUCAACCUCCAAUGCAUCCCACCACAUGAUGAUGCCUGAUGAGCCUUGGUUUUUUG,-1.61
18,GACCAAUCUGCCCUCAGAGCUCGAGAACAUCUUCGUAUGCAGAGGAGGCAGGCUUCGGUGGCGCGAUAGCGCCAACGUCCUCAACCUCCAAUGCAUCCCACCACAUCAUGAUGCCUGAAGAGCCUUGGUUUUUUG,-5.19
19,GACCAAUCUGCCCUCAGAGCUCGAGAACAUCUUCGUAUGCAGAGGAGGCAGCCUUCGGUGGCGCGAUAGCGCCAACGGCCUCAACCUCCAAUGCGUCCCACCACAUGAUGAUGCCUGAAGAGCCUUGGUUUUUUG,-2.15
20,GACCAAUCUGCCCUCAGAGCUCGAGAACAUCUUCGUAUGCAGAGGAGGCAGGCUUCGGUGGCGCGAUAGCGCCAACGUCCUCAACCUGCAUUGCAUCCCACCACAUGAUGAUGCCUGAAGAGCCUUGGUUUUUUG,-6.86
21,GACCAAUCUGCCCUCAGAGCUCGAGAACAUCUUCGUAUGCAGAGGAGGCAGUCUUCGGUGGCGCGAUAGCGCCAACGUCCUCAACCUCCAAUGCAUCCCACCACAUGAUGAUGCCUGAAGAGCCUUGGUUUUUUG,-2.2

row,Variant,polymerase ribozyme fitness (log ratio)
1,GACCAAUCUGCCCUCAGAGCUCGAGAACAUCUUCGUAUCCAGAGGAGGCAGGCUUCGGUGGCGCGAUAACGCCAACGUCCUAAACCUCCAAUGCAUCCCACCACAUGAUGAUGCCUGAAUAGCCUUGGUUUUUUG,-5.69
2,GACCAAUCUGCCCUCAGAGCUCGAGAACAUCUUCGUAUGCAGAGGAGGCAGGCUUCGGUGCCGCGAUAGCGCCAACGUCCUCAACCUCCAAUGCAUCCCACCACAUGAUGAUGCCUGAAGAGCCUCGGUUUUUUG,-4.78
3,GACCAAUCUGCCCUCAGAGCUCGAGAACAUCUUCGUAUCCAGAGGAGGCAGGCUUCGGUGGCGCGAUAGCGCCAACGUCCUCAACCUCCAAUGCAUCCCACCACAUGAUGAUGCCUGAAGAGCGUUGGUUUUUUG,-0.0867
4,GACCAAUCUGCCCUCAGAGCUCGAGAACAUCUUCGUAUGCAGAGGAGGCAGGCUUCGGUGGCGCGAUAGCGCCAACGUCCUCAACCUCCAAUGCAUCCCACCACAUGAUUAUGCCUGAAAAGCCUUGGUUUUUUG,-2.35
5,GACCAAUCUGCCCUCAGAGCUCGAGAACAUCUUCGUAUGCAUAGGAGGCAGGCUUGGGUGGCGCGAUAGUGCCAACGUCCUCAACCUCCAAUGCAUCCCACCACAUGAUGACGCCUGAAGAGCUUUGGUUUUUUG,-2.29
6,GACCAAUCUGCCCUCAGAGCUCGAGAACAUCUUCGUAUGCAGAGGAGGCAGGCUUCGGUGGCGCGAUAACGCCAACGUCCUCAACCUCCAAUGCAUCCCACCACAUGAUGAUGCCUGAAGAGCCUUGGUUUUUUG,-4.06
7,GACCAAUCUGCCCUCAGAGCUCGAGAACAUCUUCGUAUGCAGAGGAGGCAGGCUUCGGUGGCGCGAUAGCGCCAACGUCCUCAACCCCCAAUGCAUCCCACCACAUGAUGAUGCUUGAGGAGCCUUGGUUCUUUG,1.61
8,GACCAAUCUGCCCUCAGAGCUCGAGAACAUCUUCGUAUGCAGAGGAGGCAGGCUUCGGUCGCGCGAUAGCGCCAACGUCCUCACCCUCCAAUGCAUCCCACCACAUGAUGAUGCCUGAAGAGCCUUGGUUUUUUG,-1.87
9,GACCAAUCUGCCCUCAGAGCUCGAGAACAUCUUCGUAUGCAGAGGAGGCAGGCUUCGGUGGCGCGAUAGCGCCAACGUCCUCAACCUCCAAUGCAUCCCACCACAUGAUGAUGCCUGAAGAGCCUUAGUUUUUUG,-2.27
10,GACCAAUCUGCCCUCAGAGCUCGAGAACAUCUUCGUAUGCAGAGGAGGCAGGCUUCGGUGGCGCGAUAGCGCCAACGUCCUCAACCUCCAAUGCAUCCCACCACAUGAUGAUGCCUGAAGAACCUUGGUUAUUUG,-1.83
11,GACCAAUCUGCCCUCAGAGCUCGAGAACAUCUUCGUAUGCAGAAGAGGCAGGCUUCGGUGGCGCGAUAGCUCCAACGUCCUCAACCUCCAAUGCAUCCCACCACAUGAUGAUGCCUGAAGAGCCUUGGUUUUUUG,-3.19
12,GACCAAUCUGCCCUCAGAGCUCGAGAACAUCUUCGUAUGCAGAGGAGGCAGGCUUCGGUGACGCGAUAGCGCCAACGACCUCAACCUCCAAUGCAUCCCACCACAUGAUGAUGCCUGAAGAGCCUUGGUUUUUUG,-0.679
13,GACCAAUCUGCCCUCAGAGCUCGAGAACAUCUUCGUAUGCAGAGGAGGCAGGCUUCGGUGGCGCGAUAGCGCCAACGUCCCCAACCUCCAAUGCAUCCCACCACAUCAUGAUGCCUGAAGAGCCUUGGUUUUUUG,-5.8
14,GACCAAUCUGCCCUCAGAGCUCGAGAACAUCUUCGUAUGCAGAGCAGGCAGGCUUCGGUGGCGCGAUAGCGCCAACGUCCUCAACCUCUAAUGCAUCCCACCACAUGAUGAUGCCUGAAGAGCCUUGGUUUAUUG,-2.62
15,GACCAAUCUGCCCUCAGAGCUCGAGAACAUCUUCGUAUGCAGAGGAGGCAGGCUUCGGUGGCGCGAUAGCGCCAACGUCCUAAACCUCCAAUGCAUCCCACCACAUGAUGAUUCCUGAAGAGCCUUGGUUUUUUG,-3.08
16,GACCAAUCUGCCCUCAGAGCUCGAGAACAUCUUCGGCUGCAGAGGAGGCAGGCUUCGGUGGGGCGAUAGCGCCAACGUCCUCUACCUUCAAUGCAUCCCACCACAUGAUGAUGCCUGAAGAGCCUUGGUUUUUUG,-2.61
17,GACCAAUCUGCCCUCAGAGCUCGAGAACAUCUUCGUAUGCAGAGGAGGCAGGCUUCGGUGGCGCGAUAGCGCCAACGUCCUCAACCUCCAAUGCAAACCACCACAUGAUGAUGCCUGAAGAGCCUUAGUUUUUUG,-2.83
18,GACCAAUCUGCCCUCAGAGCUCGAGAACAUCUUCGUAUGCAGAGGAGGCAGGCUUCGGUCGCGCGAUAUCGCCAACGUCCUCAACCUCCAAUGCAUCCCUCCACAUGAUGAUGCCUGAAGAGCCUUGGUUUUUUG,-4.04
19,GACCAAUCUGCCCUCAGAGCUCGAGAACAUCUUCGUAUGCAGAGGAGGCAGGCUUCGGUCGCGCGAUAGCGCCAACGUCCUCAACCUCCAAUGCAUCCCACCACAUGAUGAUGCCUGAAGAGCCUUGGUUUUUUG,-1.25
20,GACCAAUCUGCCCUCAGAGCUCGAGAACAUCUUCGGCUGCAGAGGAGGCCGGCUUCGGUGGCGCGAUAGCGCCAACGUCCUCAACCUCCAAUGCAUCCCACCACAUGAUGAUGCCUGAAGAGCCUUGGUUUUUUG,-0.281
21,GACCAAUCUGCCCUCAGAGCUCGAGAACAUCUUCGGCUGUAGAGGAGGCAGGUUUCGGUGGCUCGAUAGCGCCAACGUCCUCAACCUCCAAUGCAUCCCACCACAUGAUGAUGCCUGAAGAGGCUUGGUUUUCUG,-0.381

# From the RNAGym collection of RNA variant scans (doi:10.1073/pnas.2313332121)
